These results are taken from paper PMC5056641 (The Biochemical journal, 2014).

The target of test [1] is His-CLK1 (Cdc2-like kinase 1, mouse) (mouse, UniProt P22518 1-483). The experiment in a line: pull-down.
Another test addresses GST-SRSF1 (human, UniProt Q07955 1-248). The experiment in a line: pull-down.

Sequence of GST-SRSF1 (Q07955 whole entry): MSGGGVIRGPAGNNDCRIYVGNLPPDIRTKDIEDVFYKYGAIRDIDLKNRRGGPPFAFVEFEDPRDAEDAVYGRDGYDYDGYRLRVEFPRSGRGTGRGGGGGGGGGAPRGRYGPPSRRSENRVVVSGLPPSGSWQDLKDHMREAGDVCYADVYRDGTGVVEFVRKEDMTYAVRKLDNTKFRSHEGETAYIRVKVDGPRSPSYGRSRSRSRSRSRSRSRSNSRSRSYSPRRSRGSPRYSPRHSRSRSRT

B1: GST-N (CLK1 residues 1-160) (domain or fragment, mouse, UniProt P22518 1-160, looked up)
chain: MRHSKRTYCPDWDERDWDYGTWRSSSSHKRKKRSHSSAREQKRCRYDHSKTTDSYYLESRSINEKAYHSRRYVDEYRNDYMGYEPGHPYGEPGSRYQMHSSKSSGRSGRSSYKSKHRSRHHTSQHHSHGKSHRRKRSRSVEDDEEGHLICQSGDVLSARY
With B1, in test [1], the binding result is “binds”.

B2: His-N (CLK1 residues 1-160) (domain or fragment, mouse, UniProt P22518 1-160, looked up)
chain: MRHSKRTYCPDWDERDWDYGTWRSSSSHKRKKRSHSSAREQKRCRYDHSKTTDSYYLESRSINEKAYHSRRYVDEYRNDYMGYEPGHPYGEPGSRYQMHSSKSSGRSGRSSYKSKHRSRHHTSQHHSHGKSHRRKRSRSVEDDEEGHLICQSGDVLSARY
On to B2, for which the binding result with GST-SRSF1 is on record as “binds”.
